B1: TSC2, untagged, full-length (transfected) (natural protein)
chain: not shown
notes: TSC2; also called untagged TSC2; source: HEK 293T, transfected, in lysate; also co-purified with TSC1-TEV-myc on anti-myc beads and released by AcTEV

Data set [1] concerns the molecule itself. The experiment in a line: SEC; TSC1-TSC2 complex from cotransfected HEK 293T cells, purified on anti-myc affinity beads, released by AcTEV overnight at 4°C, Coomassie gel and Superose 6 gel filtration, fractions immunoblotted. A general note: Size exclusion chromatography separates by hydrodynamic size, large species first.
The target in data set [2] is B1. The description is as above. The settings on record: both partners purified.

Turning to B1, the binding result in data set [1] was “binds”.

B2: TSC1-TEV-myc, released from anti-myc beads by AcTEV (natural protein, UniProt Q92574 1-1164, looked up)
chain: MAQQANVGELLAMLDSPMLGVRDDVTAVFKENLNSDRGPMLVNTLVDYYLETSSQPALHILTTLQEPHDKHLLDRINEYVGKAATRLSILSLLGHVIRLQPSWKHKLSQAPLLPSLLKCLKMDTDVVVLTTGVLVLITMLPMIPQSGKQHLLDFFDIFGRLSSWCLKKPGHVAEVYLVHLHASVYALFHRLYGMYPCNFVSFLRSHYSMKENLETFEEVVKPMMEHVRIHPELVTGSKDHELDPRRWKRLETHDVVIECAKISLDPTEASYEDGYSVSHQISARFPHRSADVTTSPYADTQNSYGCATSTPYSTSRLMLLNMPGQLPQTLSSPSTRLITEPPQATLWSPSMVCGMTTPPTSPGNVPPDLSHPYSKVFGTTAGGKGTPLGTPATSPPPAPLCHSDDYVHISLPQATVTPPRKEERMDSARPCLHRQHHLLNDRGSEEPPGSKGSVTLSDLPGFLGDLASEEDSIEKDKEEAAISRELSEITTAEAEPVVPRGGFDSPFYRDSLPGSQRKTHSAASSSQGASVNPEPLHSSLDKLGPDTPKQAFTPIDLPCGSADESPAGDRECQTSLETSIFTPSPCKIPPPTRVGFGSGQPPPYDHLFEVALPKTAHHFVIRKTEELLKKAKGNTEEDGVPSTSPMEVLDRLIQQGADAHSKELNKLPLPSKSVDWTHFGGSPPSDEIRTLRDQLLLLHNQLLYERFKRQQHALRNRRLLRKVIKAAALEEHNAAMKDQLKLQEKDIQMWKVSLQKEQARYNQLQEQRDTMVTKLHSQIRQLQHDREEFYNQSQELQTKLEDCRNMIAELRIELKKANNKVCHTELLLSQVSQKLSNSESVQQQMEFLNRQLLVLGEVNELYLEQLQNKHSDTTKEVEMMKAAYRKELEKNRSHVLQQTQRLDTSQKRILELESHLAKKDHLLLEQKKYLEDVKLQARGQLQAAESRYEAQKRITQVFELEILDLYGRLEKDGLLKKLEEEKAEAAEAAEERLDCCNDGCSDSMVGHNEEASGHNGETKTPRPSSARGSSGSRGGGGSSSSSSELSTPEKPPHQRAGPFSSRWETTMGEASASIPTTVGSLPSSKSFLGMKARELFRNKSESQCDEDGMTSSLSESLKTELGKDLGVEAKIPLNLDGPHPSPPTPDSVGQLHIMDYNETHHEHS
notes: TSC1 with an AcTEV recognition site (ENLYFQG) introduced by site directed mutagenesis before the myc tag; after cleavage part of the site (ENLYFQ) would remain on TSC1; The position of the site is in Additional file 1
For the molecule B2, the binding result in data set [2] is “binds”.

(Values after publication PMC3517901, “The TSC1-TSC2 complex consists of multiple TSC1 and TSC2 subunits” (BMC Biochemistry, 2012).)
